Test results from PMC6005794, “Experimental and bioinformatic approach to identifying antigenic epitopes in human α- and β-enolases” (Biochemistry and Biophysics Reports, 2018).
Where two headings read alike, the source gives them in different places.

Assays:
[1] = cited from earlier work
Description: The ion-exchange chromatography was used to purify both α- and β-enolases. The method employed in this work takes advantage of different isoelectric point values calculated for human α- and β-enolases (7.38 and 7.72, respectively), muscle-specific enzymes from rat (7.45) and pig (8.8–9.0), [21]. The summary of human enolase isoenzymes purification is presented in Supplementary Table 1. The purity of the enolase preparations was examined at every purification step by SDS-PAGE and is shown on Supplementary Fig. S1.

[2] = test system: anti-β-enolase antibodies; test: ELISA test with pin-tethered peptides; format: binding, rabbit; conditions: relative to N^193VIKEKYGKDATN^205-GG-pin
Procedure: The peptides corresponding to predicted epitopes were synthesized using NCP Block of 96 hydroxypropylmethacrylate pins (MIMOTOPES, Clayton, Victoria, Australia) according to earlier described protocol. The synthesis was performed in 96-well plates, following the one-pin – one-peptide approach. Each pin was submerged in 100 μl of the solution containing 60 mM F-moc amino acid and an equimolar amount of diisopropylcarbodiimide and N-hydroxybenzotriazole as coupling reagents. Each coupling cycle lasted 4 h., and to assess the completion of the coupling reaction; pins were tested with 10 mM bromophenol blue for the presence of free amino groups. Peptides were deprotected and pins washed with MeOH, 0.5% acetic acid in MeOH, MeOH, dried, and stored at − 20 °C. […]
The TBST soaked pins were transferred to a 96-well plate filled with 200 μl of 1% BSA in TBST and incubated for 60 min at room temperature. […] The attached antibodies were detected after incubation of the pins with goat-anti-human IgG-alkaline phosphatase (AP) conjugate (ICN Biomedicals, Aurora, Ohio, USA, diluted according to the manufacturer's recommendations). The AP activity was measured to determine the level of the bound conjugate. […] The enzymatic reaction was stopped by removal of pins from the plate, and the amount of released p-nitrophenol was measured at 406 nm in a plate reader (PerkinElmer). […]

[3] = storage stability (enolase activity); format: physicochemical; conditions: 7.5 mM imidazole-HCl pH 6.8, 2.5 mM MgSO4, 50 mM NaCl, 50% glycerol, 4 °C
Procedure: At all stages of the enzyme purification, the magnesium sulfate and temperature set at 4 °C were used to prevent the loss of the enolase activity. Magnesium ions are essential for both catalysis and stability of the enolase dimer, [39]. Purification of β-enolase from human muscle tissue was performed according to the procedure described earlier. Briefly, 110 g of frozen striated muscle was homogenized in deionized water containing 3 mM MgSO4 and protease inhibitors PMSF (phenylmethylsulfonyl fluoride) and aprotinin (2 µg/ml). Homogenization was performed in PT3100D homogenizer (DanLab, Poland) at 4 °C for 10 min. The crude protein extract was incubated at 53–54 °C for 3 min, then cooled to 4 °C and denatured proteins removed by centrifugation at 9000 g for 45 min. The supernatant was fractionated with ammonium sulfate at 4 °C, by adding solid salt in small portions and by stirring gently. The mixture was left overnight at 4 °C after reaching 60% saturation of (NH4)2SO4 and precipitated proteins were centrifuged at 9000 g for 45 min and discarded. Protein precipitation was continued by adding solid (NH4)2SO4 up to 80% saturation, and after overnight storage at 4 C the precipitated proteins were centrifuged. The pellet was dissolved in 20 mM Tris-HCl buffer pH 9.0, containing 3 mM MgSO4 and 1 mM β − mercaptoethanol and dialyzed against this buffer. […]

[4] = muscle-specific enzymes from rat and pig

Molecule: human α-enolase: α-enolase purified from human kidney
- isoelectric point ([1]; calculated for human enolases): 7.38

Molecule: substitution of E^197 in N^193VIKEKYGKDATN^205-GG-pin with alanine: α-enolase epitope 2 peptide with E^197 substituted with alanine
- loss of immunological activity on substitution [2]: 70%

B1: muscle-specific enzyme from pig: pig muscle β-enolase (protein, UniProt Q1KYT0 2-434, looked up)
Beta-enolase: AMQKIFAREILDSRGNPTVEVDLHTAKGRFRAAVPSGASTGIYEALELRDGDKSRYLGKGVLKAVEHINKTLGPALLEKKLSVVDQEKVDKFMIELDGTENKSKFGANAILGVSLAVCKAGAAEKGVPLYRHIADLAGNPDLVLPVPAFNVINGGSHAGNKLAMQEFMILPVGASSFREAMRIGAEVYHHLKGVIKGKYGKDATNVGDEGGFAPNILENNEALELLKTAIQAAGYPDKVVIGMDVAASEFYRNGKYDLDFKSPDDPSRHITGEKLGELYKSFIKNYPVVSIEDPFDQDDWKTWTSFLSGVNIQIVGDDLTVTNLKRIAQAVEKKACNCLLLKVNQIGSVTESIQACKLAQSNGWGVMVSHRSGETEDTFIADLVVGLCTGQIKTGAPCRSERLAKYNQLMRIEEALGDKAVFAGRKFRNPKAK
- isoelectric point [1, 4]: 8.8–9.0

B2: human β-enolase: β-enolase purified from human skeletal muscle (protein, UniProt P13929 2-434, looked up)
Beta-enolase: AMQKIFAREILDSRGNPTVEVDLHTAKGRFRAAVPSGASTGIYEALELRDGDKGRYLGKGVLKAVENINNTLGPALLQKKLSVVDQEKVDKFMIELDGTENKSKFGANAILGVSLAVCKAGAAEKGVPLYRHIADLAGNPDLILPVPAFNVINGGSHAGNKLAMQEFMILPVGASSFKEAMRIGAEVYHHLKGVIKAKYGKDATNVGDEGGFAPNILENNEALELLKTAIQAAGYPDKVVIGMDVAASEFYRNGKYDLDFKSPDDPARHITGEKLGELYKSFIKNYPVVSIEDPFDQDDWATWTSFLSGVNIQIVGDDLTVTNPKRIAQAVEKKACNCLLLKVNQIGSVTESIQACKLAQSNGWGVMVSHRSGETEDTFIADLVVGLCTGQIKTGAPCRSERLAKYNQLMRIEEALGDKAIFAGRKFRNPKAK
- storage stability [3]: several months without loss of activity
- isoelectric point ([1]; calculated for human enolases): 7.72

B3: muscle-specific enzyme from rat: rat muscle β-enolase (protein, UniProt P15429 2-434, looked up)
Beta-enolase: AMQKIFAREILDSRGNPTVEVDLHTAKGRFRAAVPSGASTGIYEALELRDGDKSRYLGKGVLKAVEHINKTLGPALLEKKLSVVDQEKVDKFMIELDGTENKSKFGANAILGVSLAVCKAGAAEKGVPLYRHIADLAGNPDLVLPVPAFNVINGGSHAGNKLAMQEFMILPVGASSFKEAMRIGAEVYHHLKGVIKAKYGKDATNVGDEGGFAPNILENNEALELLKTAIQAAGYPDKVVIGMDVAASEFYRNGKYDLDFKSPDDPARHISGEKLGELYKSFIKNYPVVSIEDPFDQDDWATWTSFLSGVDIQIVGDDLTVTNPKRIAQAVEKKACNCLLLKVNQIGSVTESIQACKLAQSNGWGVMVSHRSGETEDTFIADLVVGLCTGQIKTGAPCRSERLAKYNQLMRIEEALGDKAVFAGRKFRNPKAK
- isoelectric point [1, 4]: 7.45
